Reference: paper PMC10140047, “BICD2 phosphorylation regulates dynein function and centrosome separation in G2 and M” (Nature Communications, 2023)
Changes are numbered by the printed parent chain. Names and notes keep the numbering of the source.

B1: TwinStrep-BICD2 WT (natural protein, mouse, UniProt Q921C5 1-820, looked up)
chain: MSAPSEEEEYARLVMEAQPEWLRAEVKRLSHELAETTREKIQAAEYGLAVLEEKHQLKLQFEELEVDYEAIRSEMEQLKEAFGQAHTNHKKVAADGESREESLIQESASKEQYYVRKVLELQTELKQLRNVLTNTQSENERLTSVAQELKEINQNVEIQRGRLRDDIKEYKFREARLLQDYSELEEENISLQKQVSVLRQNQVEFEGLKHEIKRLEEETEYLNSQLEDAIRLKEISERQLEEALETLKTEREQKNNLRKELSHYMSINDSFYTSHLQVSLDGLKFSDDTVTAEPNNDAEALVNGFEHSGLVKSSLDNKTSTPRKDGLAPPSPSLVSDLLSELHISEIQKLKQQLVQMEREKVGLLATLQDTQKQLEQARGTLSEQHEKVNRLTENLSALRRLQAGKERQTSLDNEKDRDSHEDGDYYEVDINGPEILACKYHVAVAEAGELREQLKALRSTHEAREAQHAEEKGRYEAEGQALTEKISLLEKASHQDRELLAHLEKELKKVSDVAGETQGSLNVAQDELVTFSEELANLYHHVCMCNNETPNRVMLDYYREGQGKAGRTSPEGRGRRSPVLLPKGLLATEVGRADGGTGDNSPSPSSSLPSPLSDPRREPMNIYNLIAIIRDQIKHLQAAVDRTTELSRQRIASQELGPAVDKDKEALMEEILKLKSLLSTKREQITTLRTVLKANKQTAEVALANLKSKYENEKAMVTETMMKLRNELKALKEDAATFSSLRAMFATRCDEYITQLDEMQRQLAAAEDEKKTLNSLLRMAIQQKLALTQRLELLELDHEQTRRGRSKAASKAKPASPSL
notes: BICD2, mouse cDNA amplified from the pEGFP constructs into pLIB-TwinStrep-3C-BICD2; A 3C site lies between tag and protein; no cleavage is described; also called full-length BICD2 WT; wild type TwinStrep-BICD2; source: insect cells (baculovirus), purified (StrepTactinXT, Superdex 200); not shown: TwinStrep, N-terminal, kept
B2: GST-Rab6A (natural protein, human, UniProt P20340 1-208, looked up)
chain: MSTGGDFGNPLRKFKLVFLGEQSVGKTSLITRFMYDSFDNTYQATIGIDFLSKTMYLEDRTVRLQLWDTAGQERFRSLIPSYIRDSTVAVVVYDITNVNSFQQTTKWIDDVRTERGSDVIIMLVGNKTDLADKRQVSIEEGERKAKELNVMFIETSAKAGYNVKQLFRRVAAALPGMESTQDRSREDMIDIKLEKPQEQPVSEGGCSC
notes: Preloaded with either GDP or GTPγS before the pull-down
B3: TwinStrep-BICD2 S102D (natural protein, mouse, UniProt Q921C5 1-820, looked up)
chain: B1 chain with S102D
notes: BICD2, mouse, with S102D (pLIB-TwinStrep-3C-BICD2 S102D); A 3C site lies between tag and protein; no cleavage is described; also called full-length BICD2 S102D; S102D TwinStrep-BICD2; source: insect cells (baculovirus), purified (StrepTactinXT, Superdex 200); not shown: TwinStrep, N-terminal, kept

Assays:
GST-Rab6A = biological target: B2; assay: pull-down; GST-Rab6 on GSH agarose beads preloaded with GTPγS, incubated 90 min at RT with purified TwinStrep-BICD2 in Binding Buffer (50 mM Tris pH 7.4, 125 mM NaCl, 5 mM EDTA, 0.1% NP40); blot with anti-BICD2; settings: both partners purified
TwinStrep-BICD2 S102D = biological target: B3; assay: as above; settings: both partners purified
[1] = biological target: the molecule itself; assay: SEC-MALS; purified TwinStrep-BICD2 WT and S102D; predicted MW of ~190 kDa

Row | Binder | fold binding against Rab6 preloaded with GDP (GST-Rab6A) [fold] | binding result (TwinStrep-BICD2 S102D) | stoichiometry N [1]
1 | B1 | ~5 |  | 
2 | B2 |  | binds | 
3 | B3 | ~5 |  | 2
